Reference: the supplement of paper PMC10201428
± gives the standard deviation of the averaged measurements.

tested on: VchCAST RNA-guided transposition machinery (E. coli BL21(DE3) host, lacZ target); test: relative integration efficiency (T-LR orientation) vs wild-type transposon end (log2 (normalized fold change)); transposon end mutated: right end (5 bp flank + 75 bp right end); higher = more efficient transposition
Procedure, shortened: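 Barcode abundances in input plasmids and in genomic integration junctions were obtained by PCR amplification and Illumina sequencing. These came from E. coli BL21(DE3) co-transformed with a T7-driven effector plasmid and a pUC57 donor carrying 1549 left-end or 1849 right-end transposon variants, then plated with 0.1 mM IPTG at 37°C for 18 h. Relative integration efficiency is the output/input fold change, normalised to reference barcodes and log-transformed.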

Sequence | relative integration efficiency (log2)
ACATTTGTTGATACAACCATAAAATGATAATTACAACCATAAAATGATAATTATCATAATTATCATTTTATGGTTGCTCTGATCATAGTCAGACCAACATTGCTACGACCCGTATTCGCACCGACAC | 1.96 ± 0.16
ACATTTGTTGATACAACCATAAAATGATAATTACACCCATAAATTGATAATTATCACACCCATAAATTGATAGGTAAGAGGATCATAGTCAGACCAACATTGCTACGACCCGTATTCGCACCGACAC | 0.884 ± 0.061
ACATTTGTTGATACAAGGTAAAAATGATAATTACACCCATAAATTGATAATTATCACACCCATAAATTGATATTGCCTCTGATCATAGTCAGACCAACATTGCTACGACCCGTATTCGCACCGACAC | -2.67 ± 0.22
CGCGCTGTTGATACAACCATAAAATGATAATTACACCCATAAATTGATAATTATCACACCCATAAATTGATATTGCCTCTGATCATAGTCAGACCAACATTGCTACGACCCGTATTCGCACCGACAC | 0.747 ± 0.2
ACATTTGTTGATACAACCATAAAATGATAATTACTCTGATCATAGTCAGACCAACATTGCTACGACCCGTATTCGCACCACCCATAAATTGATAATTATCAGTGGGTATTTAACTATAACGCGACAC | 1.01 ± 0.035
ACATTTGTTGATACAACCATAAAATGATAATTACCCCCATAAATTGATAATAATGACACCGAATTTAACTATAACGCTCTGATCATAGTCAGACCAACATTGCTACGACCCGTATTCGCACCGACAC | 1.94 ± 0.1
ACATTTGTTGATAAAACCATAAAATGATTTTTAGAAACCATAATCTGAAATTATCACACCCATAAATTGATATTGCCTCTGATCATAGTCAGACCAACATTGCTACGACCCGTATTCGCACCGACAC | -2.56 ± 0.33
ACATTTGTTGATACAACCATAAAATGATAATTACAACCATAAAATGATAATTATCACACCCATAAATTGATATTGCCTCTGATCATAGTCAGACCAACATTGCTACGACCCGTATTCGCACCGACAC | -0.38 ± 0.42
ACATTTGTTGATACACCCATAAATTGATAATTACAACCATAAAGTGATATTTATCACACCCATAAATTGATATTGCCTCTGATCATAGTCAGACCAACATTGCTACGACCCGTATTCGCACCGACAC | -0.466 ± 0.18
ACATTTGTTGATACAACCATAAAATGATAATTAATCACCCATAAATTGATAATTATCAACAAACGCCCGGTCGCGGTACTCTGATCATAGTCAGACCAACATTGCTACGACCCGTATTCGCACCGAC | 1.09 ± 0.077
ACATTAGTTGATACAACCATAAAATGATAATTACACCCATAAATTGATCATTATCACACCCAATTTAACTATAACGCTCTGATCATAGTCAGACCAACATTGCTACGACCCGTATTCGCACCGACAC | -5.7 ± 0.14
ACATTTGTTGATCAACCATAAAATGATAATTACACCCATAAATTGATAATTATCACACCCATAAATTGATATTGCCTCTGATCATAGTCAGACCAACATTGCTACGACCCGTATTCGCACCGACACT | -4.42 ± 0.092
ACATTTGTTGATACAACCATAAAATGATAATTACACCCATAAATTGATAATTATCACACCCATAAATTGATATTGCCTCTGATCCAACCATAAAATGATAATTAATAGTCAGACCAAGCACCGACAC | 0.046 ± 0.066
ACATTTGTTGATACAACCATAAAATGTTAATTACACCCATAAATTGTTAATTATCACACCCATAAATTGTTATTGCCTCTGATCATAGTCAGACCAACATTGCTACGACCCGTATTCGCACCGACAC | -0.437 ± 0.34
ACATTTGTTGATACACCCATAAATTGATATTGCCAACCATATATTGATATCTCTCACAACCATATATTGATATCTCCTCTGATCATAGTCAGACCAACATTGCTACGACCCGTATTCGCACCGACAC | -0.214 ± 0.48
ACATTTGTTGATACAACCATATATTGATATCTCCACCCATAAATTGATAATTATCACACCCATAAATTGATAATTACTCTGATCATAGTCAGACCAACATTGCTACGACCCGTATTCGCACCGACAC | -0.06 ± 0.4

Sequence | relative integration efficiency (log2)
ACATTTGTTGATACAACCATTAAATGATAATTCCACCCAGAAATTGATAATTATCACACCCAATTTAACTATAACGCTCTGATCATAGTCAGACCAACATTGCTACGACCCGTATTCGCACCGACAC | -0.278 ± 0.36
ACATTTCTCGATACAACCATAAAATGATAATTACACCCATAAATTGATCATTATCACACCCAATTTAACTATAACGCTCTGATCATAGTCAGACCAACATTGCTACGACCCGTATTCGCACCGACAC | 1.36 ± 0.048
ACATTTGTTGATACAACCATCAAATGATAATTACACCCATCAATTGATAATTATCACACCCATCAATTGATATTGCCTCTGATCATAGTCAGACCAACATTGCTACGACCCGTATTCGCACCGACAC | -1.14 ± 0.11
ACATTTGTTGATACAACCATATATTGATATCTCCAACCATAAAGTGATATTTATCACAACCATATATTGATATCTCCTCTGATCATAGTCAGACCAACATTGCTACGACCCGTATTCGCACCGACAC | -0.237 ± 0.36
ACATTTGTTGATACAACCATAAAGTGATATTTACAACCATAAGTTGATATTTTTCACACCCATAAATTGATAATTACTCTGATCATAGTCAGACCAACATTGCTACGACCCGTATTCGCACCGACAC | 0.0675 ± 0.11
ACATTTGTTGATACAACCATAAAATGATAATTACACCCATAAATTCTATATTATCACACCCATAAATTGATATTGCCTCTGATCATAGTCAGACCAACATTGCTACGACCCGTATTCGCACCGACAC | -0.688 ± 0.11
ACATTTGTTGATACAACCATAAAATGATAATTTGACCCATAAATTGATAATTATCACACCCATAAATTGATATTGCCTCTGATCATAGTCAGACCAACATTGCTACGACCCGTATTCGCACCGACAC | -0.216 ± 0.13
ACATTTGTTGATACAACCATAAAATGATAATTACACCCATAAATTGATAATCACACCCATAAATTGATATTGCCTCTGATCATAGTCAGACCAACATTGCTACGACCCGTATTCGCACCGACACTGA | 1.82 ± 0.057
ACATTTGTTGATACAACCATAAAATGATAATTACACCCATAAAAACTTAATTATCACACCCATAAATTGATATTGCCTCTGATCATAGTCAGACCAACATTGCTACGACCCGTATTCGCACCGACAC | -0.52 ± 0.069
ACATTTGTTGATACAACCATAAAATGATAATTACAACCATAAGTTGATATTTTTCACAACCATATATTGATATCTCCTCTGATCATAGTCAGACCAACATTGCTACGACCCGTATTCGCACCGACAC | 0.235 ± 0.079
ACATTTTGGTATACAACCATAAAATGATAATTACACCCATAAATTGATAATTATCACACCCATAAATTGATATTGCCTCTGATCATAGTCAGACCAACATTGCTACGACCCGTATTCGCACCGACAC | -6.61 ± 2.1
ACATTTGTTGATACAACCATAAAAGGATTATTACACCCATTAATTGATAATTATCACACCCAATTTAACTATAACGCTCTGATCATAGTCAGACCAACATTGCTACGACCCGTATTCGCACCGACAC | 1.27 ± 0.069
ACATTTGTTGATACAACCATAAAATGATCATTACACCCATAAATTGATAATTATCCCACCCAATTTAACTATAACGCTCTGATCATAGTCAGACCAACATTGCTACGACCCGTATTCGCACCGACAC | 2.27 ± 0.065
ACATTTGTTGATACAACCATAAAATGATACGGCCACCCATAAATTGATACGGCTCACACCCATAAATTGATAGGTACTCTGATCATAGTCAGACCAACATTGCTACGACCCGTATTCGCACCGACAC | 0.469 ± 0.35
ACATTTGTTGATACAACCATAAAATGATAATTACACCCATAAATTGATAATTATCAACCCCATAAATTGATATTGCCTCTGATCATAGTCAGACCAACATTGCTACGACCCGTATTCGCACCGACAC | 1.26 ± 0.17
ACATTTGTTGATACAACCATAAAATGATAATTACACCCATAACGTGATAATTATCACACCCATAAATTGATATTGCCTCTGATCATAGTCAGACCAACATTGCTACGACCCGTATTCGCACCGACAC | 0.32 ± 0.18
